For one substance, nucleosome formation fraction (package ratio, 15 min) of tethered 836-bp DNA in single-molecule TPM, 7.5 nM histone octamer pre-incubated with 15 nM yNap1, 150 mM NaCl (87.3 % without chaperone) results are on record in article PMC4303269.

The target in this assay is histone octamer.

For the substance “nucleosome assembly protein 1 (yNap1) (from UniProt P25293 1-417) (natural protein)”, the nucleosome formation fraction (package ratio, 15 min) of tethered 836-bp DNA in single-molecule TPM, 7.5 nM histone octamer pre-incubated with 15 nM yNap1, 150 mM NaCl (87.3 % without chaperone) is 70.5%.
